Assay results from PMC4197836.
Where two headings read alike, the source gives them in different places.

What was measured:
Test in all cases: AlphaScreen or HTRF
[1] = molecular target: His6-tagged MLV IN (Moloney Murine Leukemia Virus)
[2] = molecular target: His6-tagged MLV IN (Moloney Murine Leukemia Virus); remark: listed apart in the source
[3] = molecular target: GST-tagged mBRD4ET (aa 601-685) (mouse) (UniProt Q9ESU6)

His6-tagged MLV IN (Moloney Murine Leukemia Virus), sequence (P03355 1331-1738 limits assumed): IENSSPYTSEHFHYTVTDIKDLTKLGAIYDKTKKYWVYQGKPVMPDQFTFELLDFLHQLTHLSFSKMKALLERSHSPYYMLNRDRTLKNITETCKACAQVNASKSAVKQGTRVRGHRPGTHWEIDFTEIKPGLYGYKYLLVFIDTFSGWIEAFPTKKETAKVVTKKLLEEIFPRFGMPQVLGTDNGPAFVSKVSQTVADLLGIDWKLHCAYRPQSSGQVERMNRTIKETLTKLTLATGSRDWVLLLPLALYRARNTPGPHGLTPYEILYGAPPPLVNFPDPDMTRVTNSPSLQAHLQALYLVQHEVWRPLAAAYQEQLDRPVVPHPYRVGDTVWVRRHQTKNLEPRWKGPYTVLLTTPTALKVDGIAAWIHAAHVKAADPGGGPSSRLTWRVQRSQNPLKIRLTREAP

Row | Substance | Kd [1] [nM] | Kd [2] [nM] | Kd [3] [nM]
1 | GST-tagged mBRD4ET (aa 601-685) (from UniProt Q9ESU6 601-685) (domain or fragment) | 58.7 | 8.56 | –
2 | GST-tagged mBRD4_(ETSEED) (aa 601-721) (from UniProt Q9ESU6 601-721) (domain or fragment) | 8.56 | 58.7 | –
3 | His6-tagged MLV IN (enzyme) | – | – | 56.7
4 | MBP-fused BRD2 ET domain (domain or fragment) | – | 0.6 | –
5 | MBP-fused BRD3 ET domain (domain or fragment) | – | 0.97 | –
6 | MBP-fused BRD4 ET domain (domain or fragment) | – | 0.41 | –
